Laboratory results from US20130064834A1 (published 2013).

T1: his-tagged Syrian golden hamster (Mesocricetus auratus) PCSK9 (Syrian golden hamster (Mesocricetus …))
T1 construct: also called maPCSK9-h; maPCSK9
T1 chain: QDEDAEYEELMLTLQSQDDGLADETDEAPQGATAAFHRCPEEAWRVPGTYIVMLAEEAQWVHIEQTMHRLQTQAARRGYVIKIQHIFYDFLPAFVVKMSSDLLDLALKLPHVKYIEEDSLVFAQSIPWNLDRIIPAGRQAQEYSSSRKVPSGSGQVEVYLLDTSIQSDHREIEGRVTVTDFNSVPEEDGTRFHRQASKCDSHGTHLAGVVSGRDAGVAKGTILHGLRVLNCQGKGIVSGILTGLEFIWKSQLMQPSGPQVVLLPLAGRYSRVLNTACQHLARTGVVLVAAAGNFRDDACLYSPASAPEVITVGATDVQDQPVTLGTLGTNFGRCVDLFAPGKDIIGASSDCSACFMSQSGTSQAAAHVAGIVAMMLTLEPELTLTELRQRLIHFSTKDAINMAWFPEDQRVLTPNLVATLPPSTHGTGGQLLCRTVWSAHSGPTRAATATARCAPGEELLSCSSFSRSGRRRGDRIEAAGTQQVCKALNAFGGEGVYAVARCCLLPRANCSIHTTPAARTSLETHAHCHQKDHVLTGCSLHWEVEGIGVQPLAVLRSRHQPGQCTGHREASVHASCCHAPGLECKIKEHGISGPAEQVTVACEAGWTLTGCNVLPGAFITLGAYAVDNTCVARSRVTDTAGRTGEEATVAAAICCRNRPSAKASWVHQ

T2: human PCSK7, myc-myc-his tagged (human, UniProt Q16549 142-667, limits assumed)
T2 construct: also called hPCSK7-mmh; hPCSK7
T2 sequence: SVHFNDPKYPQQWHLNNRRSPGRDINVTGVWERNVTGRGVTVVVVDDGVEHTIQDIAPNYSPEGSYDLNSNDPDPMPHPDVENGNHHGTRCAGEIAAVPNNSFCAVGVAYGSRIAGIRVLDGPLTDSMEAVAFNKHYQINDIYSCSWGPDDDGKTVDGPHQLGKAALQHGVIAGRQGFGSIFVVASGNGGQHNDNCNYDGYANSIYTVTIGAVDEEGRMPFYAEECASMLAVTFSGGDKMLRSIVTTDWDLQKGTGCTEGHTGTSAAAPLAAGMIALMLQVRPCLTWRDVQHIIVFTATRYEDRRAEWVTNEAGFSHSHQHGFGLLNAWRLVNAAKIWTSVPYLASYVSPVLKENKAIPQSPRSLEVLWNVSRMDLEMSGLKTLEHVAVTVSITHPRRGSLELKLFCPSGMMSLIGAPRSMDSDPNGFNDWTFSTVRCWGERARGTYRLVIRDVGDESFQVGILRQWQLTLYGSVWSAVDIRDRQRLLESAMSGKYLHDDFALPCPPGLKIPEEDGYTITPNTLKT

T3: human PCSK1, myc-myc-his tagged (human, UniProt P29120 111-753, limits assumed)
T3 construct: also called hPCSK1-mmh; hPCSK1
T3 sequence: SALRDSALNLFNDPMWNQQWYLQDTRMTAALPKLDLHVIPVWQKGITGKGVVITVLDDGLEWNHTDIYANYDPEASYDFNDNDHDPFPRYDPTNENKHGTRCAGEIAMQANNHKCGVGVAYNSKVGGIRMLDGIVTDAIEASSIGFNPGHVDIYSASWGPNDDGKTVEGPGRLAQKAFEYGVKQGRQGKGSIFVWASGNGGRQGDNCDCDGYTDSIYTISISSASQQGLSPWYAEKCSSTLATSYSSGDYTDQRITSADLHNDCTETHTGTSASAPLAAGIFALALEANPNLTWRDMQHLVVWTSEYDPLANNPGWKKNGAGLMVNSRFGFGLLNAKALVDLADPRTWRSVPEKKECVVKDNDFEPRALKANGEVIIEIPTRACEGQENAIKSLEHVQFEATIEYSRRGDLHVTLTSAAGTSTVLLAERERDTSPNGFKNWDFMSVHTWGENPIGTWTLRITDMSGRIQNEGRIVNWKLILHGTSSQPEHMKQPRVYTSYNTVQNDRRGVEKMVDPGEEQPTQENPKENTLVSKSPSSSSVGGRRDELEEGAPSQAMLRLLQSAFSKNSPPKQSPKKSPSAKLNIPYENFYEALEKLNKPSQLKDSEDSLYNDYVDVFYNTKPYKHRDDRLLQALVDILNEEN


Columns and labels:
hPCSK9(D374Y)-mmh = biological target: T4, hPCSK9(D374Y)-mmh (human, UniProt Q8NBP7 31-692); assay: competition ELISA vs EGF-AB-hFc, pH 5.5
T4 construct: also called hPCSK(D374Y)-mmh
Description: (§1) Briefly, hLDLR-ecto, hLDLR EGF-A-hFc or hLDLR EGF-AB-hFc, each at 2 μg/ml, was coated on a 96-well plate in PBS buffer overnight at 4° C., and nonspecific binding sites blocked with BSA. […] The equilibrated sample solutions were transferred to receptor or receptor fragment coated plates.

[1] = biological target: T5, tagged rhesus monkey (Macaca mulata) PCSK9 (rhesus monkey (Macaca mulata), UniProt A8T666 31-692); assay: competition ELISA vs hLDLR-ecto, pH 7.2
T5 construct: also called mmPCSK9-mmh; mmPCSK9
Description: as §1

Human PCSK9-myc-myc-his [2] = biological target: T6, Human PCSK9-myc-myc-his (human, UniProt Q8NBP7 31-692); assay: SPR, antigen captured at high density, pH 7.4, 25C
T6 construct: also called hPCSK9-mmh; hPCSK9

Human PCSK9-myc-myc-his [3] = biological target: T6, Human PCSK9-myc-myc-his; assay: SPR, antigen captured at low density, pH 5.5, 25C
hPCSK9(R215E) = biological target: T7, hPCSK9(R215E) (human, UniProt Q8NBP7 31-692); assay: SPR, mAb captured, 25C;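 further: antibodies held on a sensor chip bearing chemically coupled F(ab′)2 anti-human IgG as the capture surface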
T7 construct: mmh-tagged variant hPCSK9
Excerpt: (§2) Each selected antibody was captured on a F(ab′)2 anti-hIgG surface created through direct chemical coupling to a BIACORE™ chip to form a captured antibody surface.

hPCSK9(D129G) = biological target: T8, hPCSK9(D129G) (human, UniProt Q8NBP7 31-692); assay: SPR, mAb captured, 25C;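 further: antibodies held on a sensor chip bearing chemically coupled F(ab′)2 anti-human IgG as the capture surface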
T8 construct: mmh-tagged variant hPCSK9
Excerpt: as §2

hPCSK9(F216L) = biological target: T9, hPCSK9(F216L) (human, UniProt Q8NBP7 31-692); assay: SPR, mAb captured, 25C;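 further: antibodies held on a sensor chip bearing chemically coupled F(ab′)2 anti-human IgG as the capture surface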
T9 construct: mmh-tagged variant hPCSK9
Excerpt: as §2

hPCSK9(S127R) = biological target: T10, hPCSK9(S127R) (human, UniProt Q8NBP7 31-692); assay: SPR, mAb captured, 25C;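 further: antibodies held on a sensor chip bearing chemically coupled F(ab′)2 anti-human IgG as the capture surface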
T10 construct: mmh-tagged variant hPCSK9
Excerpt: as §2

hPCSK9(P70A) = hPCSK9(P70A) (human, UniProt Q8NBP7 31-692); assay: SPR, mAb captured, 25C
Excerpt: as §2

hPCSK9(D343R) = biological target: T11, hPCSK9(D343R) (human, UniProt Q8NBP7 31-692); assay: SPR, mAb captured, 25C
T11 construct: mmh-tagged variant hPCSK9
Excerpt: as §2

[4] = biological target: T1, his-tagged Syrian golden hamster …; assay: SPR, mAb captured on anti-hFc, 37C
[5] = biological target: T2, human PCSK7, myc-myc-his tagged; assay: ELISA, mAb coated
[6] = biological target: T3, human PCSK1, myc-myc-his tagged; assay: ELISA, mAb coated

T5 sequence (A8T666 31-692 limits assumed): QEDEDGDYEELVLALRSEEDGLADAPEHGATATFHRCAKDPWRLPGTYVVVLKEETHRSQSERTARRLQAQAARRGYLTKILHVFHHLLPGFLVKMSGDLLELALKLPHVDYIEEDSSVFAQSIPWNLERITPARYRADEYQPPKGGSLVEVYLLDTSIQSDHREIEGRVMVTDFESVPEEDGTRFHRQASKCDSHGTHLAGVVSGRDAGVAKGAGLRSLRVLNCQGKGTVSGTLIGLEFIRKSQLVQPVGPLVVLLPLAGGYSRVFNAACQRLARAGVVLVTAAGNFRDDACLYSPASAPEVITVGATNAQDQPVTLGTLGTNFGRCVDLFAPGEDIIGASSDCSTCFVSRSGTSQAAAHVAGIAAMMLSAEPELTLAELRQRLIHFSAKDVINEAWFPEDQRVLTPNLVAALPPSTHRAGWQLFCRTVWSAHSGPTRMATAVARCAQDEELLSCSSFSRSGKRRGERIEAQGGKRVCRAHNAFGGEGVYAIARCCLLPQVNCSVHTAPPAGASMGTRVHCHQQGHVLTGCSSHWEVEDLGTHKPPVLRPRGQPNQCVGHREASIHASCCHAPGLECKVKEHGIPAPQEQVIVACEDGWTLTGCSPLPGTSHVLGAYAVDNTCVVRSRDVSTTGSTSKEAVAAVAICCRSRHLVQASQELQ

Binder | IC50 (hPCSK9(D374Y)-mmh) [nM] | IC50 [1] [nM] | Kd (Human PCSK9-myc-myc-his [2]) [nM] | T1/2 (Human PCSK9-myc-myc-his [2]) [min] | Kd (Human PCSK9-myc-myc-his [3]) [nM] | T1/2 (Human PCSK9-myc-myc-his [3]) [min] | Kd (hPCSK9(R215E)) [nM] | Kd (hPCSK9(D129G)) [nM] | T1/2 (hPCSK9(D129G)) [min] | Kd (hPCSK9(F216L)) [nM] | T1/2 (hPCSK9(F216L)) [min] | Kd (hPCSK9(S127R)) [nM] | T1/2 (hPCSK9(S127R)) [min] | Kd (hPCSK9(P70A)) [nM] | T1/2 (hPCSK9(P70A)) [min] | Kd (hPCSK9(D343R)) [nM] | T1/2 (hPCSK9(D343R)) [min] | further results
H1M300N (antibody, V domains shown, Fully human version made in CHO cells) VH: EMQLVESGGGLVQPGGSLRLSCAASGFTFSSHWMKWVRQAPGKGLEWVANINQDGSEKYYVDSVKGRFTISRDNAKNSLFLQMNSLRAEDTAVYYCARDIVLMVYDMDYYYYGMDVWGQGTTVTVSS VL: not shown | 3.94 | 0.255 | 0.065 | 507 | 1.38 | 13 | 1.81 | 1.4 | 88 | 0.99 | 121 | 1.87 | 110 | 1.68 | 80 | 1.18 | 89 | –
H1H316P (antibody, V domains shown, Fully human mAb made in CHO cells; also called mAb316P) VH: EVQLVESGGGLVQPGGSLRLSCAASGFTFNNYAMNWVRQAPGKGLDWVSTISGSGGTTNYADSVKGRFIISRDSSKHTLYLQMNSLRAEDTAVYYCAKDSNWGNFDLWGRGTLVTVSS VL: not shown | 1.14 | < 0.25 | 0.191 | 74 | 0.188 | 58 | 0.9 | 1.27 | 36 | 1.83 | 32 | 2.4 | 36 | 1.42 | 32 | 7.88 | 6 | Kd [4]: 19 nM; T1/2 [4]: 1 min; binding result [5]: no binding (tested: 1.2 nM); binding result [6]: no binding (tested: 1.2 nM); T1/2 (hPCSK9(R215E)): 43 min
